Several values for one entry are separate records, joined by “and”; a condition that tells them apart may be missing. Equal values may be shown once. Each block holds one substance with its values, some of them ahead of it.
Legend:
[1] = target: DM2h^Bla-1-Myc (Arabidopsis thaliana); experiment: native gel or EMSA
[2] = target: ΔTPDM3^Col-0 (recombinant, 52-515) (Arabidopsis thaliana); experiment: cryo-EM structure
[3] = target: ΔTPDM3^Col-0 D332R (recombinant) (Arabidopsis thaliana); experiment: SEC
[4] = target: ΔTPDM3^Col-0 DQ-RR (D332R Q345R double mutant, recombinant) (Arabidopsis thaliana); experiment: SEC
[5] = target: ΔTPDM3^Col-0 DQN-AAA (D332A Q345A N349A triple mutant, recombinant) (Arabidopsis thaliana); experiment: SEC
[6] = target: ΔTPDM3^Col-0 Q345R (recombinant) (Arabidopsis thaliana); experiment: SEC
[7] = target: ΔTPDM3^Col-0 S214A (recombinant) (Arabidopsis thaliana); experiment: SEC
[8] = target: ΔTPDM3^Hh-0 (recombinant, 52-515) (Arabidopsis thaliana); experiment: cryo-EM structure
[9] = target: ΔTPDM3^Hh-0 S214A (recombinant) (Arabidopsis thaliana); experiment: SEC

stoichiometry N [3]: 6
Substance: ΔTPDM3^Col-0 D332R (recombinant) (enzyme)

stoichiometry N [4]: 6
Substance: ΔTPDM3^Col-0 DQ-RR (D332R Q345R double mutant, recombinant) (enzyme)

stoichiometry N [8]: 6
Substance: ΔTPDM3^Hh-0 (recombinant, 52-515) (enzyme)

stoichiometry N [9]: 6
Substance: ΔTPDM3^Hh-0 S214A (recombinant) (enzyme)

The remaining lines, values behind:

Substance: DM2h^Bla-1-Myc (receptor)
stoichiometry N [1]: 2 and 4

Substance: ΔTPDM3^Col-0 (recombinant, 52-515) (enzyme)
stoichiometry N [2]: 6

Substance: ΔTPDM3^Col-0 DQN-AAA (D332A Q345A N349A triple mutant, recombinant) (enzyme)
stoichiometry N [5]: 6

Substance: ΔTPDM3^Col-0 Q345R (recombinant) (enzyme)
stoichiometry N [6]: 6

Substance: ΔTPDM3^Col-0 S214A (recombinant) (enzyme)
stoichiometry N [7]: 6

— paper doi:10.1101/2024.10.28.620575
